These results are taken from PMC6474364, “The Carbon Switch at the Level of Pyruvate and Phosphoenolpyruvate in Sulfolobus solfataricus P2” (Frontiers in Microbiology, 2019).

Series [1] addresses T1, PEPS (SSO0883) (Saccharolobus solfataricus, UniProt Q97ZL2).
T1 construct: gene ppsA-1; full-length, codon-optimised synthetic gene in pET11c, E. coli Rosetta (DE3) pRIL; partially purified by heat precipitation; no tag mentioned
T1 sequence (Q97ZL2 1-799): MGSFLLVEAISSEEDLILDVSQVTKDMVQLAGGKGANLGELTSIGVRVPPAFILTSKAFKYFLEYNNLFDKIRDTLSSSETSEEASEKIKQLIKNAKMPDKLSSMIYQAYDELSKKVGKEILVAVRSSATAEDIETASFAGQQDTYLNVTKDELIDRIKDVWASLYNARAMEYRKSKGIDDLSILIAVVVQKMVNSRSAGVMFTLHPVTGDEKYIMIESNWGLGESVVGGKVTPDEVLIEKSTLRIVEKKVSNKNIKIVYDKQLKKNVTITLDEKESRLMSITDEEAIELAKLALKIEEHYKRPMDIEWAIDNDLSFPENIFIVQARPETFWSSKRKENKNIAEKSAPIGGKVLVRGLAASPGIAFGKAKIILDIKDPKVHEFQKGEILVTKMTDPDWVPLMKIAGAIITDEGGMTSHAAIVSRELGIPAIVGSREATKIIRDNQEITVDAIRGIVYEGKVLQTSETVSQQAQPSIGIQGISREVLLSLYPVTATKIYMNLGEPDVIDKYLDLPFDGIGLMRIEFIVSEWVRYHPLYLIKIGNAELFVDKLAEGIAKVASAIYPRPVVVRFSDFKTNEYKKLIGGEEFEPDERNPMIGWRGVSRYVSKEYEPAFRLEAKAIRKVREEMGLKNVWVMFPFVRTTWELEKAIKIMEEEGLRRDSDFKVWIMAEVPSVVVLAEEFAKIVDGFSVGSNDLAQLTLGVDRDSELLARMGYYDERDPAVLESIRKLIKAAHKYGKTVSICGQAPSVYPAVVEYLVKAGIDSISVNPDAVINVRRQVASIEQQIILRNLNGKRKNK
Kind of series: discontinuous assay, PEP detected with PK/LDH, NADH […] nm. The class given is biochemical. The conditions noted are these: read-out: % residual activity at 1 mM.

Series [2] addresses T2, PK (SSO0981) (Saccharolobus solfataricus, UniProt Q97ZD7).
T2 construct: gene pyK; full-length ORF in pET324, E. coli Rosetta (DE3) pRIL; heat precipitation, ion exchange, gel filtration; no tag mentioned
T2 sequence (Q97ZD7 1-452): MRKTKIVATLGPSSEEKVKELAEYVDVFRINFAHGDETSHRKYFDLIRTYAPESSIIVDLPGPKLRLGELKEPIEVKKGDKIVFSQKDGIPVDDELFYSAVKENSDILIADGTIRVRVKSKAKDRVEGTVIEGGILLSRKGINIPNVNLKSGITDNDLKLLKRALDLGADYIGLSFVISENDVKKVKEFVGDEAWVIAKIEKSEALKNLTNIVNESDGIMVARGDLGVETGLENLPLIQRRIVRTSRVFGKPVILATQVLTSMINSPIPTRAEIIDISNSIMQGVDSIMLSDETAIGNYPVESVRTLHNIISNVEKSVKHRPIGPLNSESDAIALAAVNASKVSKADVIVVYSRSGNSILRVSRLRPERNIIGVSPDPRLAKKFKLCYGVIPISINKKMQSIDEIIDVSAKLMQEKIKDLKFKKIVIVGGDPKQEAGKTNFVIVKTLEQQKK
Kind of series: continuous LDH-coupled assay, NADH […] nm. The class given is biochemical. The conditions noted are these: non-competitive, allosteric; printed Ki equals the approximate concentration for 50% inhibition; half-saturating 0.03 mM PEP, 2 mM ADP, 10 mM MgCl2, 60°C (b61 says 70°C).

Substrate in series [3]: Nc1ncnc2c1ncn2[C@@H]1O[C@H](COP(=O)(O)OP(=O)(O)OP(=O)(O)O)[C@@H](O)[C@H]1O
Kind of series: purified protein. The format is biochemical, Saccharolobus solfataricus. The conditions noted are these: 70°C, pH 7.0, 100 mM Tris/HCl, 10 mM MgCl2, co-substrate pyruvate, anabolic direction.

Substrate in series [4]: CC(=O)C(=O)O
Kind of series: purified protein. The format is biochemical, Saccharolobus solfataricus. The conditions noted are these: 70°C, pH 7.0, 100 mM Tris/HCl, 10 mM MgCl2, co-substrate ATP, anabolic direction.

Substrate in series [5]: C=C(OP(=O)(O)O)C(=O)O
Kind of series: purified protein. The conditions noted are these: 70°C, pH 6.5, 0.1 M HEPES, 10 mM MgCl2, co-substrate ADP. The format is biochemical, Saccharolobus solfataricus.

Substrate in series [6]: Nc1ncnc2c1ncn2[C@@H]1O[C@H](COP(=O)(O)OP(=O)(O)O)[C@@H](O)[C@H]1O
Kind of series: purified protein. The class given is biochemical, Saccharolobus solfataricus. The conditions noted are these: 70°C, pH 6.5, 0.1 M HEPES, 10 mM MgCl2, co-substrate PEP.

For `Nc1ncnc2c1ncn2[C@@H]1O[C@H](COP(=O)(O)O)[C@@H](O)[C@H]1O` [AMP], the remaining activity at 1000 µM in series [1] is approximately 80%.

Take `Nc1ncnc2c1ncn2[C@@H]1O[C@H](COP(=O)(O)OP(=O)(O)OP(=O)(O)O)[C@@H](O)[C@H]1O` [ATP]: the half-inhibitory concentration (IC50) (usually the midpoint of a concentration-inhibition curve) in series [2] turned out to be 800 µM.

For `O=C(O)CCC(=O)C(=O)O` [α-ketoglutarate], the remaining activity at 1000 µM in series [1] was approximately 80%.

B1: PEPS (SSO0883) (Saccharolobus solfataricus P2) (protein)
chain: MGSFLLVEAISSEEDLILDVSQVTKDMVQLAGGKGANLGELTSIGVRVPPAFILTSKAFKYFLEYNNLFDKIRDTLSSSETSEEASEKIKQLIKNAKMPDKLSSMIYQAYDELSKKVGKEILVAVRSSATAEDIETASFAGQQDTYLNVTKDELIDRIKDVWASLYNARAMEYRKSKGIDDLSILIAVVVQKMVNSRSAGVMFTLHPVTGDEKYIMIESNWGLGESVVGGKVTPDEVLIEKSTLRIVEKKVSNKNIKIVYDKQLKKNVTITLDEKESRLMSITDEEAIELAKLALKIEEHYKRPMDIEWAIDNDLSFPENIFIVQARPETFWSSKRKENKNIAEKSAPIGGKVLVRGLAASPGIAFGKAKIILDIKDPKVHEFQKGEILVTKMTDPDWVPLMKIAGAIITDEGGMTSHAAIVSRELGIPAIVGSREATKIIRDNQEITVDAIRGIVYEGKVLQTSETVSQQAQPSIGIQGISREVLLSLYPVTATKIYMNLGEPDVIDKYLDLPFDGIGLMRIEFIVSEWVRYHPLYLIKIGNAELFVDKLAEGIAKVASAIYPRPVVVRFSDFKTNEYKKLIGGEEFEPDERNPMIGWRGVSRYVSKEYEPAFRLEAKAIRKVREEMGLKNVWVMFPFVRTTWELEKAIKIMEEEGLRRDSDFKVWIMAEVPSVVVLAEEFAKIVDGFSVGSNDLAQLTLGVDRDSELLARMGYYDERDPAVLESIRKLIKAAHKYGKTVSICGQAPSVYPAVVEYLVKAGIDSISVNPDAVINVRRQVASIEQQIILRNLNGKRKNK
notes: full-length, codon-optimised synthetic gene in pET11c, E. coli Rosetta (DE3) pRIL; partially purified by heat precipitation; no tag mentioned
Turning to B1, in series [3], the Km (commonly the substrate concentration at which the rate is half of its maximum) amounted to 610 µM; the maximum rate (Vmax) (in general, the rate approached at saturating substrate) was found to be 0.22 µmol/min/mg; the kcat (commonly the number of substrate molecules converted per active site and unit of time at saturation) was 0.33 s⁻¹; the specificity constant (kcat/Km) – broadly, the turnover number divided by the Michaelis constant – came to 530 M⁻¹ s⁻¹. For the same molecule, in series [4], the Km is 460 µM, the Vmax came out at 0.32 µmol/min/mg, the kcat was found to be 0.48 s⁻¹ and the kcat/Km stood at 1040 M⁻¹ s⁻¹.

B2: PK (SSO0981) (Saccharolobus solfataricus P2) (protein)
chain: MRKTKIVATLGPSSEEKVKELAEYVDVFRINFAHGDETSHRKYFDLIRTYAPESSIIVDLPGPKLRLGELKEPIEVKKGDKIVFSQKDGIPVDDELFYSAVKENSDILIADGTIRVRVKSKAKDRVEGTVIEGGILLSRKGINIPNVNLKSGITDNDLKLLKRALDLGADYIGLSFVISENDVKKVKEFVGDEAWVIAKIEKSEALKNLTNIVNESDGIMVARGDLGVETGLENLPLIQRRIVRTSRVFGKPVILATQVLTSMINSPIPTRAEIIDISNSIMQGVDSIMLSDETAIGNYPVESVRTLHNIISNVEKSVKHRPIGPLNSESDAIALAAVNASKVSKADVIVVYSRSGNSILRVSRLRPERNIIGVSPDPRLAKKFKLCYGVIPISINKKMQSIDEIIDVSAKLMQEKIKDLKFKKIVIVGGDPKQEAGKTNFVIVKTLEQQKK
notes: full-length ORF in pET324, E. coli Rosetta (DE3) pRIL; heat precipitation, ion exchange, gel filtration; no tag mentioned
Consider B2, for which, in series [5], the Km stood at 90 µM, the Vmax turned out to be 70.4 µmol/min/mg, the catalytic constant (kcat) is 58.4 s⁻¹ and the kcat/Km came to 628000 M⁻¹ s⁻¹. For the same molecule, in series [6], the Km was 70 µM, the Vmax came out at 70.8 µmol/min/mg, the kcat stood at 58.8 s⁻¹ and the kcat/Km stood at 852000 M⁻¹ s⁻¹.
